Experimental data taken from patent US11851498B2, “Anti-CD276 antibodies (B7H3)” (THE UNITED STATES OF AMERICA, as represented by THE …, priority 2014, dated 2023).
Entries after “also recorded” stand apart in the source; their conditions may differ. Non-standard residues stand in square brackets, D forms with d. Residues, ends and D or L forms follow the SMILES beside them. *: point of attachment. Dolaproine = CO[C@@H]([C@@H]1CCCN1)[C@@H](C)C(=O)O; Dil = CC[C@H](C)[C@H](NC)[C@@H](CC(=O)O)OC; X1 = C[C@@H](N*)[C@@H](O)c1ccccc1; NMeV = CN[C@H](C(=O)O)C(C)C

Assays:
293/CD276 cells = test: Cell viability of HEK 293 cells transduced with CD276; settings: FIG. 7
Protocol: (§1) HEK 293 cells (293) or HEK 293 cells transduced with CD276 (293/CD276) were treated with MMAE alone, m8524 (m276) (SEQ ID NOs: 26 and 27) antibody alone, m825 (irrelevant control antibody)-ADC, or m8524-ADC. The drug of the ADCs was MMAE.

HEK 293 cells (293) = test: Cell viability of untransduced HEK 293 cells; settings: 293 cells (low CD276); various concentrations (nM); FIG. 7
Protocol: as §1

[1] = tested on: Pan02 pancreatic adenocarcinoma tumors, tumor vasculature and normal tissues; test: In vivo localization of FITC-labeled antibody after IP injection into Pan02 tumor-bearing mice (immunofluorescence); settings: FITC-labeled IgG1 IP; for localization/staining in tumor (tumor cells and tumor vasculature): co-stain anti-CD31/anti-Meca32
Protocol: CD276 KO mice and CD276 WT mice each bearing Pan02 pancreatic adenocarcinoma tumors were injected (IP) with FITC-labeled 8524 IgG1 (SEQ ID NOs: 26 and 27) and anti-CD31/anti-Meca32. Anti-Meca32 is a monoclonal antibody with specificity for mouse endothelium.
(§2) CD276-positive, Pan02 pancreatic adenocarcinoma tumor-bearing, CD276 KO mice were injected (IP) with FITC-labeled 8524 IgG1 (SEQ ID NOs: 26 and 27) (green staining) and anti-CD31/anti-Meca32 (red staining). CD31/Meca32 positive vessels were stained red. Human tumor cells were stained green. Separate photographic images of the green and red staining were taken, and the images of the red and green staining were merged to provide a third image wherein co-localization of red and green staining provided a yellow signal.
as §2, with “WT” for “KO”
CD276 KO mice and CD276 WT mice each bearing Pan02 pancreatic adenocarcinoma tumors were injected (IP) with FITC-labeled 8524 IgG1 (SEQ ID NOs: 26 and 27) and anti-CD31/anti-Meca32. CD31/Meca32 positive vessels in the normal liver of both CD276 KO and CD276 WT mice and in the tumor vasculature of CD276 WT mice were stained red. Human tumor cells and tumor vasculature were stained green in the CD276 WT mice. Separate photographic images of the green and red staining in the tumor of CD276 WT mice were taken, and the images of the red and green staining were merged to provide a third image wherein co-localization of red and green staining provided a yellow signal. […] The yellow signal indicated the co-localization of the CD31/Meca32 staining (red) with the CD276 staining (green).
CD276 WT mice bearing Pan02 pancreatic adenocarcinoma tumors were injected (IP) with FITC-labeled 8524 IgG1 (SEQ ID NOs: 26 and 27) and anti-CD31/anti-Meca32. CD31/Meca32 positive vessels in normal tissues, including the brain, heart, intestines, liver, muscle, spleen, and stomach of the CD276 WT mice were stained red. Pan02 tumors served as a positive control for the staining of all normal tissues. CD31/Meca32 positive vessels in the tumor vasculature of CD276 WT mice were also stained red. Human tumor cells and tumor vasculature were stained green in the CD276 WT mice. […]

[2] = tested on: MC38 (colon cancer) tumor / normal liver margin; test: Co-immunofluorescence post-staining of intrahepatic MC38 tumors at the normal liver/tumor margin; settings: MC38 tumor-bearing WT mice; samples post-stained with FITC-labeled IgG1; FIG. 6B
From the text: Samples of the normal liver/tumor margin of MC38 (colon cancer)-tumor bearing, WT mice were post-stained with FITC-labeled human anti-CD276 antibody (m8524 IgG1) (SEQ ID NOs: 26 and 27) (FIG. 6B) or laminin (FIG. 6A). Photographic images were taken.

[3] = target: T1, human CD276 expressed on the surface of HEK 293 cells (293/CD276) (Homo sapiens, UniProt Q5ZPR3); test: Flow cytometry binding to HEK293 cells transduced with human CD276; format: cell-based; settings: FITC-labeled IgG1; FIG. 5
T1 construct: expressed in transfected cells; host or cells: HEK293 cells
T1 sequence (Q5ZPR3 29-534): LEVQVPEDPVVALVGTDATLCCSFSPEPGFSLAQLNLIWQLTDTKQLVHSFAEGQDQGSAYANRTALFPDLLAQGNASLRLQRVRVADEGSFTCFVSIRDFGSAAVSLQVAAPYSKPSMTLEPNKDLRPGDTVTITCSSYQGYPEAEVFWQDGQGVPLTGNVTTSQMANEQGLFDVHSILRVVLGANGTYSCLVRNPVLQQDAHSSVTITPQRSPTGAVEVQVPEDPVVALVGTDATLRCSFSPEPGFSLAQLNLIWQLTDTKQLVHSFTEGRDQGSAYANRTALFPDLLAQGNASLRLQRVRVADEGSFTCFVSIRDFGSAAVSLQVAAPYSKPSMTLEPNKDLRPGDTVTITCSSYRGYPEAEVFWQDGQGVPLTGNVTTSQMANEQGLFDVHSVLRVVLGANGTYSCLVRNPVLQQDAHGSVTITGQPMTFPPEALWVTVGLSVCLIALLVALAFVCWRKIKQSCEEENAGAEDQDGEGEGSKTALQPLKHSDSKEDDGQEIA
Protocol: HEK293 cells were untransduced or transduced to express human CD276. The cells were cultured with FITC-labeled human anti-CD276 antibody m8524 IgG1 (SEQ ID NOs: 26 and 27). The binding of the FITC-labeled human anti-CD276 antibody m8524 IgG1 to human CD276 expressed on the cell surface was measured by flow cytometry.

[4] = tested on: mouse CD276-AP fusion protein; test: ELISA binding assay, mouse CD276; settings: scFv-Fc fusion protein in culture medium, serially diluted; CD276-AP coated at 2 μg/ml; FIG. 1B
Protocol: (§3) The scFv-encoding inserts of the unique clones were digested with SfiI and ligated into modified pSecTag bearing the same set of SfiI sites and Fc-Avi tag for soluble expression. These constructs were transfected into 293T cells for expression following the manufacturer's protocol. After 72 hr of growth, the scFv-Fc fusion proteins in the culture medium were used for the ELISA binding assay.
(§4) 50 μl of the diluted human (FIG. 1A) or mouse (FIG. 1B) CD276-AP fusion protein in PBS at 2 μg/ml was coated in a 96-well plate at 4° C. overnight. Transiently expressed scFv-Fc fusion protein in the culture medium was serially diluted and added into the target protein coated wells. After washing, a 1:3000 diluted horseradish peroxidase (HRP) conjugated goat anti-human IgG antibody was added for 1 hr at RT. After washing, 3, 3, 5, 5′-Tetramethylbenzidine (TMB) substrate was added, and the optical density (O.D.) was read at 450 nm.

[5] = tested on: human CD276-AP fusion protein; test: ELISA binding assay, human CD276; settings: scFv-Fc fusion protein in culture medium, serially diluted; CD276-AP coated at 2 μg/ml; FIG. 1A
Protocol: as §3, §4

[6] = CD276 WT mice bearing Pan02 tumors

Sequence of mouse CD276-AP fusion protein (Q8VE98 29-248 limits assumed): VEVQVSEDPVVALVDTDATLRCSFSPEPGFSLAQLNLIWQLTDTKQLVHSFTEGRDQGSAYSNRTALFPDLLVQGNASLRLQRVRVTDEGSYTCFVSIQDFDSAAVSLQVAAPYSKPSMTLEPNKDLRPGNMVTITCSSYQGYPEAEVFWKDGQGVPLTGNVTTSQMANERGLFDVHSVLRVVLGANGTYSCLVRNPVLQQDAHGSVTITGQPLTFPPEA

## CC[C@H](C)[C@@H]([C@@H](CC(=O)N1CCC[C@H]1[C@H](OC)[C@@H](C)C(=O)N[C@H](C)[C@@H](O)c1ccccc1)OC)N(C)C(=O)[C@@H](NC(=O)[C@@H](NC)C(C)C)C(C)C [MMAE, monomethyl auristatin E, reference compound] (H-[NMeV]V[Dil][Dolaproine]-X1)
293/CD276 cells; 293/CD276 cells (high CD276), various concentrations (nM)
  cytotoxicity (cell viability, % of control): cytotoxic to all cells
293/CD276 cells; 293/CD276 versus 293 cells
  selectivity for CD276-expressing cells: no selectivity
HEK 293 cells (293)
  cytotoxicity (cell viability, % of control): cytotoxic to all cells

B1: m8524 IgG1: human anti-CD276 antibody m8524 in IgG1 format (SEQ ID NOs: 26 and 27), FITC-labeled (antibody, V domains shown)
VH: QVQLQQSGAEVKKPGSSVKVSCKASGGTFSSYAISWVRQAPGQGLEWMGGIIPILGIANYAQKFQGRVTITADESTSTAYMELSSLRSEDTAVYYCARGGSGSYHMDVWGKGTTVTVSS
VL: EIVLTQSPATLSLSPGERATLSCRASQSVSSYLAWYQQKPGQAPRLLIYDASNRATGIPARFSGSGSGTDFTLTISSLEPEDFAVYYCQQRSNWPPRITFGQGTRLEIK
modifications: FITC label
[1]; CD276 WT and CD276 KO mice bearing Pan02 tumors
  staining of normal liver: not the normal liver
[1]; [6]
  staining of normal tissues (brain, heart, intestines, liver, muscle, spleen, stomach): did not stain any of the normal tissues
  localization/staining in tumor (tumor cells and tumor vasculature): co-localization; also recorded: localized to both human tumor cells and tumor vasculature; also recorded: stained tumor cells and tumor vasculature
[1]; CD276 WT mice bearing Pan02 tumors, listed as 8524 IgG1
  localization/staining in tumor (tumor cells and tumor vasculature): stained tumor cells (green) and tumor vasculature
[2]
  staining at the normal liver/tumor margin: stained tumor cells but not normal tissue
[3]
  binding to CD276-transfected 293 cells as compared to non-transfected parent 293 cells (flow cytometry): increased binding

B2: m852: anti-CD276 antibody clone, heavy chain comprising SEQ ID NO: 7 and light chain comprising SEQ ID NO: 8 (antibody, V domains shown)
VH: QVQLQQSGAEVKKPGSSVKVSCKASGGTFSSYAISWVRQAPGQGLEWMGGIIPILGIANYAQKFQGRVTITADESTSTAYMELSSLRSEDTAVYYCARGRRSGSYYMGYWGQGTLVTVSS
VL: EIVLTQSPATLSLSPGERATLSCRASQSVSSNLAWYQQKPGQAPRLLIYDTSTRATGIPARFSGSGSGTEFTLTISSLQSEDFAVYYCQQYNNWPPAYTFGQGTKLEIK
[4]
  binding to mouse CD276 (OD at 450 nm, ELISA): bound
[5]
  binding to human CD276 (OD at 450 nm, ELISA): bound

B3: m857: anti-CD276 antibody clone, heavy chain comprising SEQ ID NO: 17 and light chain comprising SEQ ID NO: 18 (antibody, V domains shown)
VH: QVQLQQSGAEVKKPGSSVKVSCKASGGTFSSYAISWVRQAPGQGLEWMGGIIPILGIANYAQKFQGRVTITADESTSTAYMELSSLRSEDTAVYYCATGGSGSYAFDIWGQGTMVTVSS
VL: EIVLTQSPATLSLSPGERATLSCRASQSVSSYLAWYQQKPGQAPRLLIYDASNRATGIPARFSGSGSGTDFTLTISSLEPEDFAVYYCQQRSNWPPSYTFGQGTKLEIK
[4]
  binding to mouse CD276 (OD at 450 nm, ELISA): bound
[5]
  binding to human CD276 (OD at 450 nm, ELISA): bound
